In the RNAGym collection of RNA variant scans (doi:10.1073/pnas.2313332121):

B1: TPR t1 (parent)
chain: GACCAAUCUGCCCUCAGAGCUCGAGAACAUCUUCGGAUGCAGAGGAGGCAGGCUUCGGUGGCGCGAUAGCGCCAACGUCCUCAACCUCCAAUGCAUCCCACCACAUGAUGAUGCCUGAAGAGCCUUGGUUUUUUG

Variants of: B1
Assay: polymerase ribozyme fitness, log enrichment relative to wild type (log ratio); higher = more active; in vitro selection for triplet polymerase activity
Outline: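 Streptavidin-bead capture of gel-excised extended constructs, followed by RT-PCR, closed a single triplicate in vitro selection round. That round began by annealing PCR-built, transcribed mutant libraries of each subunit of a heterodimeric triplet polymerase ribozyme with a biotinylated primer, the partner subunit and triplets, then incubating them frozen at −7 °C. After Illumina sequencing of inputs and outputs, genotypes needed ≥10 input reads and ≥1 read per output. Fitness is the base-2 logarithm of genotype enrichment over wild-type enrichment, using inverse-variance-weighted replicate averages.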

| Variant | polymerase ribozyme fitness (log ratio) |
| --- | --- |
| C49A C70A C73U U87A | -3.37 |
| C12U A41C C72G C86A U109A | -7.19 |
| G10U G45U | -0.583 |
| C89U G120A U129G | -1.07 |
| U7G U14G C94A | -0.903 |
| C40U C62G G110U | -4.6 |
| G61U A74U G127U | -4.02 |
| G42C U96G C124U | -0.43 |
| C80U C88U | -0.555 |
| C70U U133G | -1.12 |
| C13U C15U U32G C124A | -6.8 |
| C64U G65A A105G G113A | -6.73 |
| C8U G47C C53G U109G | -6.29 |
| C11U G42U C101A | -3.62 |
| U7A U21C C114A | -0.182 |
| G60C A105U | -3.07 |
| G77A C80U | -0.237 |
| C49G C62U C88A A95C U130G | -4.6 |
| C3G C4G G25U C28U C34U G71U G107U U112G C114A A121G | -6.59 |
| G47U G69C A105U | -5.38 |
| G60A C73G A108U | -5.92 |

| Variant | polymerase ribozyme fitness (log ratio) |
| --- | --- |
| G36C C70U G113C | -3.46 |
| A43G G63C C82G | -4.47 |
| U9A C13A C22G G48C G71A | -5.83 |
| C89G C97G | -6.08 |
| C62U A95U A105U | -3.17 |
| A29G G60A U109A U112A G122A U130G | -6.7 |
| U125A | -0.431 |
| U38A C40U C70U C101U C123G | -1.32 |
| G48U U132A | -0.856 |
| C12A A27C C40G G63C G120A | -2.65 |
| A46U C82A C86U G110U U131A | -4.27 |
| A5U C22G | -3.43 |
| G42C G52U G60C | -2.14 |
| G36A G57U U129C | -1.31 |
| U7G G44A G63C U92A U125A | -4.07 |
| C64G U78G G120A A121G C123A U131C | -4.99 |
| C3U C85U | -1.43 |
| C72U U78C U81A A83G | -1.17 |
| C15U G35A A66U U109A U116A | -5.44 |
| C8A C70U | -0.452 |
| A26C G36U A41U G120U U132A | -5.17 |

| Variant | polymerase ribozyme fitness (log ratio) |
| --- | --- |
| C4U C12U A16G C40A G57U | -2.2 |
| C22G C49G A84U C86U | -4.89 |
| C8A G117A A121U | 1.21 |
| A26U G113A | -3.51 |
| G47A C89A | -4.43 |
| C31U A111G | -5.05 |
| C8U G10A G42A G45A C53U C85A | -4.02 |
| G36A G61C G93C G110A | -6.04 |
| G51A G71A G93A U129C | -5.9 |
| G60C C94U C124U | 1.26 |
| A18U C49A | -2.29 |
| C12A C28U C40U A41U | -4 |
| C11U A41U G63A U78C C88U C114U U131G | -6.29 |
| C22A C70G A111C G113C | -6.22 |
| C8A U130G | 0.269 |
| A41C A90G | -0.105 |
| G51U C64G U112G | -6.95 |
| U7A C97A C101U U112C | -2.6 |
| C62U G77U | -0.487 |
| C49U C124A | 1.2 |
| C11U C12G C56A C88U | -1.97 |

| Variant | polymerase ribozyme fitness (log ratio) |
| --- | --- |
| C49A A50G C88A | -1.58 |
| G57C C104U G110C U131A | -4.01 |
| G110C A111G | -5.74 |
| C13G C62A | -1.11 |
| G51A U78A C88G A121U | -1.45 |
| C72U A100U | -0.925 |
| A6C C72U A91G A121U G128C | -0.723 |
| A16U A37U C97U | -5.8 |
| C11G G17A C72A | -4.27 |
| U7A G39C U55C | -1.1 |
| A5U G71A | -1.5 |
| C89U G107A | -5.32 |
| A27U U131C | -2.91 |
| U106C C114A G120C | -2.21 |
| C11A C53U C56A C76G | -3.44 |
| G93C C114A | -1.83 |
| G23A C56G A95U U112A G127C | -6.5 |
| C15G G93A | -3.21 |
| C22G C31U G51C U81A G93A C123U | -6.15 |
| A105U G120U C123U | -2.19 |
